Patent US20080306007

Columns and labels:
[1] = biological target: syndapin I (native, from rat brain lysate or synaptosomes)
[2] = biological target: T1, endophilin I (native, from rat brain lysate or synaptosomes), O35179
T1 chain: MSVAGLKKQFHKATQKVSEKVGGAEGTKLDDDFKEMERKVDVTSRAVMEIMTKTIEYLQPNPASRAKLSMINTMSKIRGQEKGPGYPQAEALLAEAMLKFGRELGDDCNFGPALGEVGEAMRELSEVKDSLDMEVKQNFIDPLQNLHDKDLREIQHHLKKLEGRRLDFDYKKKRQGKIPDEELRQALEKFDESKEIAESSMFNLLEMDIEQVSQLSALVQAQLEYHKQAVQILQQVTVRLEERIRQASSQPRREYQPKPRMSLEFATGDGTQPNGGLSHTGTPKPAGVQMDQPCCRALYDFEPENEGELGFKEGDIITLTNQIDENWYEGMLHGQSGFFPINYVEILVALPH

Sequence of syndapin I (native, from rat brain lysate or synaptosomes) (chain, as listed by the source): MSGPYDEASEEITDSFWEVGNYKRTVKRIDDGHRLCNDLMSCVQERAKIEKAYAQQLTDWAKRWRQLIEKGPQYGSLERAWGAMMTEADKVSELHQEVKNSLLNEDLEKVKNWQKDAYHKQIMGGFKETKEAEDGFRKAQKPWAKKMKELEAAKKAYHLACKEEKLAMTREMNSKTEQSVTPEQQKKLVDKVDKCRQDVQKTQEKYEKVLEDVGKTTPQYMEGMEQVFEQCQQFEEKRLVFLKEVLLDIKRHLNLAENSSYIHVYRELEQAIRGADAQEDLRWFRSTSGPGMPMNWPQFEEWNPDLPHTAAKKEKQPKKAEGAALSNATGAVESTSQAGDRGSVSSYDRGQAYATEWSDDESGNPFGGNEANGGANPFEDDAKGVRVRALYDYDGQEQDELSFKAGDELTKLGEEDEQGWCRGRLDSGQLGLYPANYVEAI

Row | Protein | total SV recycling pool (FM4-64) in transfected CGNs [1] | also measured
1 | DynI-PB2-GFP (protein) MGNRGMEDLIPLVNRLQDAFSAIGQNADLDLPQIAVVGGQSAGKSSVLENFVGRDFLPRGSGIVTRRPLVLQLVNSTTEYAEFLHCKGKKFTDFEEVRLEIEAETDRVTGTNKGISPVPINLRVYSPHVLNLTLVDLPGMTKVPVGDQPPDIEFQIRDMLMQFVTKENCLILAVSPANSDLANSDALKIAKEVDPQGQRTIGVITKLDLMDEGTDARDVLENKLLPLRRGYIGVVNRSQKDIDGKKDITAALAAERKFFLSHPSYRHLADRMGTPYLQKVLNQQLTNHIRDTLPGLRNKLQSQLLSIEKEVDEYKNFRPDDPARKTKALLQMVQQFAVDFEKRIEGSGDQIDTYELSGGARINRIFHERFPFELVKMEFDEKELRREISYAIKNIHGIRTGLFTPDLAFEATVKKQVQKLKEPSIKCVDMVVSELTSTIRKCSEKLQQYPRLREEMERIVTTHIREREGRTKEQVMLLIDIELAYMNTNHEDFIGFANAQQRSNQMNKKKTSGNQDEILVIRKGWLTINNIGIMKGGSKEYWFVLTAENLSWYKDDEEKEKKYMLSVDNLKLRDVEKGFMSSKHIFALFNTEQRNVYKDYRQLELACETQEEVDSWKASFLRAGVYPERVGDKEKASETEENGSDSFMHSMDPQLERQVETIRNLVDSYMAIVNKTVRDLMPKTIMHLMINNTKEFIFSELLANLYSCGDQNTLMEESAEQAQRRDEMLRMYHALKEALSIIGDINTTTVSTPMPPPVDDSWLQVQSVPAGEESPTSSPTPQRRAPAVPPARPGSRGPAPGPPPAGSALGGAPPVPSRPGASPDPFGPPPQVPSRPNRAPPGVPSRSGQASPSRPESPRPPFDL | – | total synaptic recycling pool (FM4-64) in transfected CGNs [1]: 59.5±4.3% of control for DynI-PB2-GFP
2 | DynI^dmE-GFP (protein) MGNRGMEDLIPLVNRLQDAFSAIGQNADLDLPQIAVVGGQSAGKSSVLENFVGRDFLPRGSGIVTRRPLVLQLVNSTTEYAEFLHCKGKKFTDFEEVRLEIEAETDRVTGTNKGISPVPINLRVYSPHVLNLTLVDLPGMTKVPVGDQPPDIEFQIRDMLMQFVTKENCLILAVSPANSDLANSDALKIAKEVDPQGQRTIGVITKLDLMDEGTDARDVLENKLLPLRRGYIGVVNRSQKDIDGKKDITAALAAERKFFLSHPSYRHLADRMGTPYLQKVLNQQLTNHIRDTLPGLRNKLQSQLLSIEKEVDEYKNFRPDDPARKTKALLQMVQQFAVDFEKRIEGSGDQIDTYELSGGARINRIFHERFPFELVKMEFDEKELRREISYAIKNIHGIRTGLFTPDLAFEATVKKQVQKLKEPSIKCVDMVVSELTSTIRKCSEKLQQYPRLREEMERIVTTHIREREGRTKEQVMLLIDIELAYMNTNHEDFIGFANAQQRSNQMNKKKTSGNQDEILVIRKGWLTINNIGIMKGGSKEYWFVLTAENLSWYKDDEEKEKKYMLSVDNLKLRDVEKGFMSSKHIFALFNTEQRNVYKDYRQLELACETQEEVDSWKASFLRAGVYPERVGDKEKASETEENGSDSFMHSMDPQLERQVETIRNLVDSYMAIVNKTVRDLMPKTIMHLMINNTKEFIFSELLANLYSCGDQNTLMEESAEQAQRRDEMLRMYHALKEALSIIGDINTTTVSTPMPPPVDDSWLQVQSVPAGRREPTSEPTPQRRAPAVPPARPGSRGPAPGPPPAGSALGGAPPVPSRPGASPDPFGPPPQVPSRPNRAPPGVPSRSGQASPSRPESPRPPFDL | 64.4±6.2% of control | –
3 | DynI^dmA-GFP (protein) MGNRGMEDLIPLVNRLQDAFSAIGQNADLDLPQIAVVGGQSAGKSSVLENFVGRDFLPRGSGIVTRRPLVLQLVNSTTEYAEFLHCKGKKFTDFEEVRLEIEAETDRVTGTNKGISPVPINLRVYSPHVLNLTLVDLPGMTKVPVGDQPPDIEFQIRDMLMQFVTKENCLILAVSPANSDLANSDALKIAKEVDPQGQRTIGVITKLDLMDEGTDARDVLENKLLPLRRGYIGVVNRSQKDIDGKKDITAALAAERKFFLSHPSYRHLADRMGTPYLQKVLNQQLTNHIRDTLPGLRNKLQSQLLSIEKEVDEYKNFRPDDPARKTKALLQMVQQFAVDFEKRIEGSGDQIDTYELSGGARINRIFHERFPFELVKMEFDEKELRREISYAIKNIHGIRTGLFTPDLAFEATVKKQVQKLKEPSIKCVDMVVSELTSTIRKCSEKLQQYPRLREEMERIVTTHIREREGRTKEQVMLLIDIELAYMNTNHEDFIGFANAQQRSNQMNKKKTSGNQDEILVIRKGWLTINNIGIMKGGSKEYWFVLTAENLSWYKDDEEKEKKYMLSVDNLKLRDVEKGFMSSKHIFALFNTEQRNVYKDYRQLELACETQEEVDSWKASFLRAGVYPERVGDKEKASETEENGSDSFMHSMDPQLERQVETIRNLVDSYMAIVNKTVRDLMPKTIMHLMINNTKEFIFSELLANLYSCGDQNTLMEESAEQAQRRDEMLRMYHALKEALSIIGDINTTTVSTPMPPPVDDSWLQVQSVPAGRRAPTSAPTPQRRAPAVPPARPGSRGPAPGPPPAGSALGGAPPVPSRPGASPDPFGPPPQVPSRPNRAPPGVPSRSGQASPSRPESPRPPFDL | 28±3.5% of control | –
4 | DynI-3B-GFP (protein) MGNRGMEDLIPLVNRLQDAFSAIGQNADLDLPQIAVVGGQSAGKSSVLENFVGRDFLPRGSGIVTRRPLVLQLVNSTTEYAEFLHCKGKKFTDFEEVRLEIEAETDRVTGTNKGISPVPINLRVYSPHVLNLTLVDLPGMTKVPVGDQPPDIEFQIRDMLMQFVTKENCLILAVSPANSDLANSDALKIAKEVDPQGQRTIGVITKLDLMDEGTDARDVLENKLLPLRRGYIGVVNRSQKDIDGKKDITAALAAERKFFLSHPSYRHLADRMGTPYLQKVLNQQLTNHIRDTLPGLRNKLQSQLLSIEKEVDEYKNFRPDDPARKTKALLQMVQQFAVDFEKRIEGSGDQIDTYELSGGARINRIFHERFPFELVKMEFDEKELRREISYAIKNIHGIRTGLFTPDLAFEATVKKQVQKLKEPSIKCVDMVVSELTSTIRKCSEKLQQYPRLREEMERIVTTHIREREGRTKEQVMLLIDIELAYMNTNHEDFIGFANAQQRSNQMNKKKTSGNQDEILVIRKGWLTINNIGIMKGGSKEYWFVLTAENLSWYKDDEEKEKKYMLSVDNLKLRDVEKGFMSSKHIFALFNTEQRNVYKDYRQLELACETQEEVDSWKASFLRAGVYPERVGDKEKASETEENGSDSFMHSMDPQLERQVETIRNLVDSYMAIVNKTVRDLMPKTIMHLMINNTKEFIFSELLANLYSCGDQNTLMEESAEQAQRRDEMLRMYHALKEALSIIGDINTTTVSTPMPPPVDDSWLQVQSVPAGRRSPTSSPTPQRRAPAVPPARAGSRGPAPGPPPAGSALGGAPPVPSRPGASPDPFGPPPQVPSRPNRAPPGVPSRSGQASPSRPESPRPPFDL | – | total synaptic recycling pool (FM4-64) in transfected CGNs [2]: 56.8±4.4% for DynI-3B-GFP
